This test has as its target SARS-CoV-2 RBDwt (residues 319 to 541) (SARS-CoV-2, UniProt P0DTC2 319-541). The test is described as follows: SPR. On the technique in general: SPR reads the build-up and loss of mass on a sensor chip optically.

This is an account of results in article PMC9278865 (Science Advances, 2022).

B1: ACE2_(740) LFMYQY2HA in the IgG3 backbone with a truncated hinge (M80) (Fc fusion)
chain: QSTIEEQAKTFLDKFNHEAEDLFYQSSLASWNYNTNITEENVQNMNNAGDKWSAFLKEQSTFAQYYPLQEIQNLTVKLQLQALQQNGSSVLSEDKSKRLNTILNTMSTIYSTGKVCNPDNPQECLLLEPGLNEIMANSLDYNERLWAWESWRSEVGKQLRPLYEEYVVLKNEMARANHYEDYGDYWRGDYEVNGVDGYDYSRGQLIEDVEHTFEEIKPLYEHLHAYVRAKLMNAYPSYISPIGCLPAHLLGDMWGRFWTNLYSLTVPFGQKPNIDVTDAMVDQAWDAQRIFKEAEKFFVSVGLPNMTYGFWENSMLTDPGNVQKAVCHPTAWDLGKGDFRILMCTKVTMDDFLTAHAEMGAIQYDMAYAAQPFLLRNGANEGFHEAVGEIMSLSAATPKHLKSIGLLSPDFQEDNETEINFLLKQALTIVGTLPFTYMLEKWRWMVFKGEIPKDQWMKKWWEMKREIVGVVEPVPHDETYCDPASLFHVSNDYSFIRYYTRTLYQFQFQEALCQAAKHEGPLHKCDISNSTEAGQKLFNMLRLGKSEPWTLALENVVGAKNMNVRPLLNYFEPLFTWLKDQNKNSFVGWSTDWSPYADQSIKVRISLKSALGDKAYEWNDNEMYLFRSSVAYAMRQYFLKVKNQMILFGEEDVRVANLKPRISFNFFVTAPKNVSDIIPRTEVEKAIRMSRSRINDAFRLNDNSLEFLGIQPTLGPPNQPPVS
As to B1, the binding result is “binds”.
